Reference: article PMC549569

Target: αCP1-KH3 (third KH domain of poly(C)-binding protein 1, PCBP1/hnRNP E1) (UniProt Q15365 279-356)
Assay: SPR

Chain of αCP1-KH3 (third KH domain of poly(C)-binding protein 1, PCBP1/hnRNP E1) (Q15365 279-356): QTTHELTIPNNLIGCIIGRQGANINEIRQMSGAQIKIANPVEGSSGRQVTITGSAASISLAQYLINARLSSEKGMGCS

B1: AR mRNA 3'-UTR 30 nt UC-rich RNA (nt 3296-3325) (ssRNA)
RNA: CUCUCCUUUCUUUUUCUUCUUCCCUCCCUA
Kd: 4.37 µM
